Molecular target: the molecule itself
Experiment: crystal structure; OXA-10 crystals (hanging drop, 4 °C, 20–23% PEG 3350, 0.2 M magnesium formate) soaked about 2 min with IPM; 1.89 Å, P212121, two chains in the asymmetric unit; dimer interface analysed with PISA

B1: OXA-10 class D β-lactamase (enzyme)
chain: GSITENTSWNKEFSAEAVNGVFVLCKSSSKSCATNDLARASKEYLPASTFKIPNAIIGLETGVIKNEHQVFKWDGKPRAMKQWERDLTLRGAIQVSAVPVFQQIAREVGEVRMQKYLKKFSYGNQNISGGIDKFWLEGQLRISAVNQVEFLESLYLNKLSASKENQLIVKEALVTEAAPEYLVHSKTGFSGVGTESNPGVAWWVGWVEKETEVYFFAFNMDIDNESKLPLRKSIPTKIMESEGIIGG
modifications: carboxylated lysine 70 (KCX70); S67 OG covalently bound to the ring-opened carbapenem (IPM or ETP, acyl-enzyme)
notes: Crystals were soaked with imipenem (6SKP) or ertapenem (6SKR); two chains (A, B) in the asymmetric unit; also called OXA-10_IPM; OXA-10_ETP
binding result: binds
